In publication PMC12313985 (2025):
Square brackets hold non-standard residues; d marks the D form. Ends that are not written are not given here. pS = N[C@@H](COP(=O)(O)O)C(=O)O

T1: 14-3-3 protein zeta (14-3-3ζ) (UniProt P63104 1-245)
T1 chain: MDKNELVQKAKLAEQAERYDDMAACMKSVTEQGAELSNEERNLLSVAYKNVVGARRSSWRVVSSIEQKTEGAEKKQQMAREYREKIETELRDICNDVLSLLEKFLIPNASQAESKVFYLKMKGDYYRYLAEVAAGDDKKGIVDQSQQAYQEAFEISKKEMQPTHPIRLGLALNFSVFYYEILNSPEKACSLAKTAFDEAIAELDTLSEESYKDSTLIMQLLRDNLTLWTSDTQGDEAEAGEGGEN


Target: T1, 14-3-3 protein zeta (14-3-3ζ)
Assay: FP

| Kd [µM] | Binder |
| --- | --- |
| 0.945 | SRTP[pS]LPTPPTREGGGSGGGSGGGVTSKCG[pS]LGNIHHK (also: fluorescein (FITC) label, position not given here) [Fluorescein (FITC)-labelled bi-phospho Tau peptide pS2 (Tau^210–222-GGGSGGGSGGG-Tau^318–331)] |
| > 100 | SRTP[pS]LPTPPTRE (also: fluorescein (FITC) label, position not given here) [Fluorescein-labelled mono-phospho-Tau pS214 peptide] |
| > 100 | VTSKCG[pS]LGNIHHK (also: fluorescein (FITC) label, position not given here) [Fluorescein-labelled mono-phospho-Tau pS324 peptide] |
